Measurements taken from paper PMC2148453.

Experiments:
[1] = target: microtubules (taxol-stabilised, polymerised from PC-tubulin; tubulin alpha-beta heterodimer) (UniProt P02550); assay: co-sedimentation
[2] = target: microtubules (taxol-stabilised, polymerised from PC-tubulin; tubulin alpha-beta heterodimer) (UniProt P02550); assay: cryo-EM structure

Sequence of UniProt P02550 (P02550 whole entry, looked up, one chain of several): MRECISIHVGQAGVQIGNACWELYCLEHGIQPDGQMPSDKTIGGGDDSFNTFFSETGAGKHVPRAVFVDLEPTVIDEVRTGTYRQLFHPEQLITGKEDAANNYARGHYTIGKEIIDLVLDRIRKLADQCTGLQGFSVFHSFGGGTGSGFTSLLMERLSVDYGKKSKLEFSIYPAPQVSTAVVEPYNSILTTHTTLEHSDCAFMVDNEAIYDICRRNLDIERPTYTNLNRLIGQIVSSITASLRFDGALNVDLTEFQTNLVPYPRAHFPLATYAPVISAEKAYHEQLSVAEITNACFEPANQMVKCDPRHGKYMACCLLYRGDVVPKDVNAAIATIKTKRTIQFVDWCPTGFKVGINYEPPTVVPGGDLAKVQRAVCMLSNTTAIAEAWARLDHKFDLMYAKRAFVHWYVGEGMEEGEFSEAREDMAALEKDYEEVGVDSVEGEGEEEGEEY

Kd [1]	stoichiometry N (kinesin heads per tubulin dimer) [1]	stoichiometry N (head per tubulin dimer) [2]	stoichiometry N (head per tubulin heterodimer) [2]	stoichiometry N (kinesin head per tubulin heterodimer) [2]	Substance
400 nM	1.1	1	1	–	rat kinesin construct rK379 (from UniProt P56536 1-379) (domain or fragment)
–	–	–	–	1	rat kinesin construct rK354 (from UniProt P56536 1-354) (domain or fragment)
